Drawing on article PMC9482650, “Quantitative fragmentomics allow affinity mapping of interactomes” (Nature Communications, 2022), this text covers pKd for 4 molecules.

Some targets named below: GRIP2_3, Q9C0E4; HTRA2, O43464; TJP1_2, Q07157; GRIP2_5, Q9C0E4; GORASP2, Q9H8Y8; DLG2_3, Q15700; Inadl_4, Q8NI35; AHNAK1, Q09666.
What all share (assay): holdup assay
Holding throughout (design): key: below the threshold = too weak to quantify, mostly under pKd 3.1 to 4

A further assay has as its target T1, PTPN13_1, Q12923.
T1 sequence (Q12923 1088-1188, limits assumed, looked up): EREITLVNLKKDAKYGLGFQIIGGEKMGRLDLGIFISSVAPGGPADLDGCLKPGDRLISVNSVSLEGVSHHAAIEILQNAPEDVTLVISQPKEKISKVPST

For a further assay, the target named is T2, APBA1_1, Q02410.
T2 sequence (Q02410 651-752, limits assumed, looked up): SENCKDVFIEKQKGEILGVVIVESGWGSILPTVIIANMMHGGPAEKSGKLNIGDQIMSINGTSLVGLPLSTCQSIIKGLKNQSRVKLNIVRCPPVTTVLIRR

Another assay concerns the target T3, GRIP1_5, Q9Y3R0.
T3 sequence (Q9Y3R0 568-668, limits assumed, looked up): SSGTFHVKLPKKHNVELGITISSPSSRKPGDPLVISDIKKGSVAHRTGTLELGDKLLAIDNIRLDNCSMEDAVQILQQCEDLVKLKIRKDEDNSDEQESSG

A further assay addresses T4, GRIP1_2, Q9Y3R0.
T4 sequence (Q9Y3R0 145-248, limits assumed, looked up): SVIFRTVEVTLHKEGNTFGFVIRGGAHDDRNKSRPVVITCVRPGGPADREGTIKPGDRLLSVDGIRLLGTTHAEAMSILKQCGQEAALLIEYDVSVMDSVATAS

A further assay addresses T5, LNX2_2, Q8N448.
T5 sequence (Q8N448 334-432, limits assumed, looked up): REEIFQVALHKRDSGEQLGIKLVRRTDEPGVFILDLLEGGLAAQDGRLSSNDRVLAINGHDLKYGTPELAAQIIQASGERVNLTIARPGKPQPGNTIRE

The next assay has as its target T6, SIPA1L2, Q9P2F8.
T6 sequence (Q9P2F8 945-1036, limits assumed, looked up): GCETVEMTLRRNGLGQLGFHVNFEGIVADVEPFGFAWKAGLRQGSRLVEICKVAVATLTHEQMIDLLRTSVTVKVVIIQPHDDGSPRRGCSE

The next assay has as its target T7, GRIP1_3, Q9Y3R0.
T7 sequence (Q9Y3R0 247-346, limits assumed, looked up): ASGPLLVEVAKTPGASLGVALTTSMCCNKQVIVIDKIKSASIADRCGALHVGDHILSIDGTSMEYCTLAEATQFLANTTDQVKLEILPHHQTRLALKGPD

Another assay concerns the target T8, CARD11, Q9BXL7.
T8 sequence (Q9BXL7 662-765, limits assumed, looked up): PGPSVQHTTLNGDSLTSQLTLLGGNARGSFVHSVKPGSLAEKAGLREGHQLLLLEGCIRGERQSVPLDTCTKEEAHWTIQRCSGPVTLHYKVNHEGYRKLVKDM

Another assay deals with T9, TX1BP3, O14907.
T9 sequence (O14907 10-122, limits assumed, looked up): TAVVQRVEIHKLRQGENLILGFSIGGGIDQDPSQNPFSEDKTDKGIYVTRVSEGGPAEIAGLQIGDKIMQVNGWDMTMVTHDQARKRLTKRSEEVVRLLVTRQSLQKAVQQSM

The target of another assay is T10, TJP3_3, O95049.
T10 sequence (O95049 375-456, limits assumed, looked up): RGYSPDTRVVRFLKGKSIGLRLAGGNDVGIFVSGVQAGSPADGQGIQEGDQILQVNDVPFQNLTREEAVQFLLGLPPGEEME

Another assay has as its target T11, SNTA1, Q13424.
T11 sequence (Q13424 82-180, limits assumed, looked up): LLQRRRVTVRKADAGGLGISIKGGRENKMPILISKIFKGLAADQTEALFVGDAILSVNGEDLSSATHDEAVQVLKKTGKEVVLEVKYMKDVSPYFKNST

The next assay has as its target T12, DFNB31_2, Q9P202.
T12 sequence (Q9P202 274-371, limits assumed, looked up): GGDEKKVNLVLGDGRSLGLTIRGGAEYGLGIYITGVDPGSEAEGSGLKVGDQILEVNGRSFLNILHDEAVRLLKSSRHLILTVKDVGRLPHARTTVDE

The next assay has as its target T13, MPDZ_10, O75970.
T13 sequence (O75970 1624-1722, limits assumed, looked up): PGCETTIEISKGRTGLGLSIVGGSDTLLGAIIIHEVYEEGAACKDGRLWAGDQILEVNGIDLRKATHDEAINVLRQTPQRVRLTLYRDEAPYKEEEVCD

The target of the next assay is T14, MPP6, Q9NZW5.
T14 sequence (Q9NZW5 125-219, limits assumed, looked up): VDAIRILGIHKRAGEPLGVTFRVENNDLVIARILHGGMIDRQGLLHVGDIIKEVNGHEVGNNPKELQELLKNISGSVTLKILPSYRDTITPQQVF

The mark [1] stands for this setting: plain residues with an end cap or a label only (N-terminal biotin on a linker: ahx).
Setting [2] is: plain residues with an end cap or a label only (N-terminal biotin on a linker: ttds).

Sequence of Inadl_4, Q8NI35 (Q8NI35 547-651): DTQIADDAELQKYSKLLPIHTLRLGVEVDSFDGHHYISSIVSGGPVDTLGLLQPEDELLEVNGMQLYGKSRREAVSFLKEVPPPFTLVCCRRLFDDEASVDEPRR
Sequence of TJP1_2, Q07157 (Q07157 181-274): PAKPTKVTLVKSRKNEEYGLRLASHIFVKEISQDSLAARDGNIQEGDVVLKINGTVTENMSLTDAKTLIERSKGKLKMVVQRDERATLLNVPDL
Sequence of AHNAK1, Q09666 (Q09666 4-100): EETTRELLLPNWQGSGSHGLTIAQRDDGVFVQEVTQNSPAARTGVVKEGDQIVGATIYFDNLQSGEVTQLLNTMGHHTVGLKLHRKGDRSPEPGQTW
Sequence of HTRA2, O43464 (O43464 355-458): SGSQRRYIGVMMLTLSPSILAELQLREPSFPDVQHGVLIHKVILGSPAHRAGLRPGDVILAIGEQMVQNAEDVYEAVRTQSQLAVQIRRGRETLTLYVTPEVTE
Sequence of GRIP2_3, Q9C0E4 (Q9C0E4 238-339): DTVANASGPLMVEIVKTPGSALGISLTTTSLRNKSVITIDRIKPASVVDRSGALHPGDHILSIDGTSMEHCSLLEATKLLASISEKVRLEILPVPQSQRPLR
Sequence of GRIP2_5, Q9C0E4 (Q9C0E4 544-642): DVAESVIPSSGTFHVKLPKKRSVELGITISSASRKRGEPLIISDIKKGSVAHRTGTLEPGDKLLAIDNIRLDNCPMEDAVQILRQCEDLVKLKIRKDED

Usually pKd stands for the negative decadic logarithm of the Kd, by convention in mol/L. In the case of EKLSSIESDV [GRIN2B, Q13224], the pKd result is “below the threshold” with PTPN13_1, Q12923 (setting [1]); “below the threshold” with APBA1_1, Q02410 (setting [1]); “below the threshold” in the assay with GRIP2_3, Q9C0E4 (setting [1]); “below the threshold” in the assay with GRIP1_5, Q9Y3R0 (setting [1]); “below the threshold” with GRIP1_2, Q9Y3R0 (setting [1]); “below the threshold” with HTRA2, O43464 (setting [1]). The pKd result is “below the threshold” in the assay with LNX2_2, Q8N448 (setting [1]); “below the threshold” with SIPA1L2, Q9P2F8 (setting [1]); “below the threshold” with GRIP1_3, Q9Y3R0 (setting [1]); “below the threshold” with CARD11, Q9BXL7 (setting [1]); 4.74 with TX1BP3, O14907 (setting [1]); “below the threshold” with TJP3_3, O95049 (setting [1]). For the same molecule, the pKd result in the assay with TJP1_2, Q07157 (setting [1]) is “below the threshold”; in the assay with GRIP2_5, Q9C0E4 (setting [1]) it was “below the threshold”; with SNTA1, Q13424 (setting [1]) it was 4.39; with DFNB31_2, Q9P202 (setting [1]), “below the threshold”; with MPDZ_10, O75970 (setting [1]), 3.84; with GORASP2, Q9H8Y8 (setting [1]) it was “below the threshold”. Besides, the pKd with DLG2_3, Q15700 (setting [1]) is 4.56; in the assay with Inadl_4, Q8NI35 (setting [1]), “below the threshold”; with AHNAK1, Q09666 (setting [1]), “below the threshold”; in the assay with MPP6, Q9NZW5 (setting [1]) it was “below the threshold”.

For the molecule VNKVWDQSSV [CIT, O14578], the pKd entry is on record as “below the threshold” with PTPN13_1, Q12923 (setting [2]); “below the threshold” with APBA1_1, Q02410 (setting [2]); “below the threshold” in the assay with GRIP2_3, Q9C0E4 (setting [2]); “below the threshold” in the assay with GRIP1_5, Q9Y3R0 (setting [2]); “below the threshold” with GRIP1_2, Q9Y3R0 (setting [2]); “below the threshold” with HTRA2, O43464 (setting [2]). Further, the pKd entry with LNX2_2, Q8N448 (setting [2]) was “below the threshold”; with SIPA1L2, Q9P2F8 (setting [2]), “below the threshold”; in the assay with GRIP1_3, Q9Y3R0 (setting [2]), “below the threshold”; with CARD11, Q9BXL7 (setting [2]), “below the threshold”; in the assay with TX1BP3, O14907 (setting [2]), 6.25; with TJP3_3, O95049 (setting [2]), “below the threshold”. The pKd result in the assay with TJP1_2, Q07157 (setting [2]) is “below the threshold”; with GRIP2_5, Q9C0E4 (setting [2]), “below the threshold”; with SNTA1, Q13424 (setting [2]), “below the threshold”; with DFNB31_2, Q9P202 (setting [2]) it was “below the threshold”; with MPDZ_10, O75970 (setting [2]), “below the threshold”; with GORASP2, Q9H8Y8 (setting [2]) it was “below the threshold”. The pKd in the assay with DLG2_3, Q15700 (setting [2]) was 3.71; with Inadl_4, Q8NI35 (setting [2]) it was “below the threshold”; with AHNAK1, Q09666 (setting [2]), “below the threshold”; in the assay with MPP6, Q9NZW5 (setting [2]), “below the threshold”.

Take PKRPFVESNV [TANC2, Q9HCD6]: the pKd entry in the assay with PTPN13_1, Q12923 (setting [2]) is “below the threshold”; in the assay with APBA1_1, Q02410 (setting [2]), “below the threshold”; with GRIP2_3, Q9C0E4 (setting [2]), “below the threshold”; in the assay with GRIP1_5, Q9Y3R0 (setting [2]), “below the threshold”; with GRIP1_2, Q9Y3R0 (setting [2]), “below the threshold”; with HTRA2, O43464 (setting [2]) it was “below the threshold”. Further, the pKd result is “below the threshold” in the assay with LNX2_2, Q8N448 (setting [2]); “below the threshold” with SIPA1L2, Q9P2F8 (setting [2]); “below the threshold” with GRIP1_3, Q9Y3R0 (setting [2]); “below the threshold” with CARD11, Q9BXL7 (setting [2]); 5.9 with TX1BP3, O14907 (setting [2]); “below the threshold” with TJP3_3, O95049 (setting [2]). For the same molecule, the pKd entry in the assay with TJP1_2, Q07157 (setting [2]) was “below the threshold”; with GRIP2_5, Q9C0E4 (setting [2]), “below the threshold”; in the assay with SNTA1, Q13424 (setting [2]), 4.33; with DFNB31_2, Q9P202 (setting [2]), “below the threshold”; in the assay with MPDZ_10, O75970 (setting [2]), 3.51; with GORASP2, Q9H8Y8 (setting [2]), “below the threshold”. Moreover, the pKd in the assay with DLG2_3, Q15700 (setting [2]) was 3.86; with Inadl_4, Q8NI35 (setting [2]), “below the threshold”; with AHNAK1, Q09666 (setting [2]), “below the threshold”; in the assay with MPP6, Q9NZW5 (setting [2]), “below the threshold”.

As for SEKHFRETEV [HTLV1-TAX1, P03409], the pKd entry with PTPN13_1, Q12923 (setting [2]) was “below the threshold”; with APBA1_1, Q02410 (setting [2]) it was “below the threshold”; with GRIP2_3, Q9C0E4 (setting [2]), “below the threshold”; with GRIP1_5, Q9Y3R0 (setting [2]) it was “below the threshold”; in the assay with GRIP1_2, Q9Y3R0 (setting [2]), “below the threshold”; with HTRA2, O43464 (setting [2]), “below the threshold”. The pKd is 4.15 with LNX2_2, Q8N448 (setting [2]); “below the threshold” with SIPA1L2, Q9P2F8 (setting [2]); “below the threshold” with GRIP1_3, Q9Y3R0 (setting [2]); “below the threshold” with CARD11, Q9BXL7 (setting [2]); 6.2 in the assay with TX1BP3, O14907 (setting [2]); “below the threshold” with TJP3_3, O95049 (setting [2]). The pKd result with TJP1_2, Q07157 (setting [2]) was “below the threshold”; with GRIP2_5, Q9C0E4 (setting [2]), “below the threshold”; in the assay with SNTA1, Q13424 (setting [2]), 5.9; in the assay with DFNB31_2, Q9P202 (setting [2]) it was 3.71; with MPDZ_10, O75970 (setting [2]), “below the threshold”; with GORASP2, Q9H8Y8 (setting [2]), “below the threshold”. For the same molecule, the pKd was 5.36 with DLG2_3, Q15700 (setting [2]); “below the threshold” with Inadl_4, Q8NI35 (setting [2]); 3.92 with AHNAK1, Q09666 (setting [2]); “below the threshold” in the assay with MPP6, Q9NZW5 (setting [2]).
